Source: US20250042994A1 (HAINAN SIMCERE ZAIMING PHARMACEUTICAL, published 2025)

What was measured:
[1] = target: T1, Human CD19-his protein (human, UniProt P15391 20-291); assay: ELISA, antibody at 0.001 nM
T1 construct: bought protein; also called human CD19 protein; recombinant human CD19-His; not shown: His tag
T1 sequence (looked up): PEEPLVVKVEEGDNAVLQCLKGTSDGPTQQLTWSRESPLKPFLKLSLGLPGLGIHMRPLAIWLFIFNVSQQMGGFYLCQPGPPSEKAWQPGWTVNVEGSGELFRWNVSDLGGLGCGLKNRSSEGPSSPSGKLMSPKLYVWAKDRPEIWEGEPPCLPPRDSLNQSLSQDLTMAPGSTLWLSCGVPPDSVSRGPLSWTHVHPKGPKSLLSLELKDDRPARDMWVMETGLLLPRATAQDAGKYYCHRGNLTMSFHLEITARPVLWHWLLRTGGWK

[2] = target: T1, Human CD19-his protein; assay: ELISA, antibody at 100 nM
[3] = target: T2, human CD19 exon1-3-his protein (human, UniProt P15391 20-186, limits assumed); assay: ELISA, coated at 2 ug/mL
T2 construct: made in HEK293E cells; also called membrane-distal end; not shown: His tag
T2 sequence (looked up): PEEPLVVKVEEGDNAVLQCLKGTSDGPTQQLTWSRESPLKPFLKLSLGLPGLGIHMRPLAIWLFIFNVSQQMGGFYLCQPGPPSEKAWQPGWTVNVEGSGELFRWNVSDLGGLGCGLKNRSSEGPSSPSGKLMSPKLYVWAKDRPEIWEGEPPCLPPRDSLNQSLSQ
Procedure: (§1) Human CD19-his protein (purchased from ACROBiosystems, catalog number: CD9-H52H2) was diluted with PBS to a final concentration of 4 μg/mL, and then added to a 96-well ELISA plate at 100 μl/well. The plate was sealed with a plastic film and incubated overnight at 4° C., the plate was washed 2 times with PBS the next day, and then a blocking solution [PBS+2% (w/w) BSA] was added for blocking at room temperature for 2 h. The blocking solution was poured off, and 100 nM gradiently diluted CD19 chimeric antibody or control antibody was added at 50 μl/well. After incubation at 37° C. for 2 h, the plate was washed 3 times with PBS. […] TMB substrate was added at 50 μl/well, and incubated at room temperature for 10 min, and then a stop solution (1.0 N HCl) was added at 50 μl/well. The OD450 nm values were read by an ELISA microplate reader (Multimode Plate Reader, EnSight, purchased from Perkin Elmer).
CD19 protein contains 4 exons in the extracellular region, in which exons 1-3 are located at the membrane-distal end and exon 4 is located at the membrane-proximal end. […] To identify the distribution of antigen binding epitopes of the chimeric antibodies, human CD19 exon 1-3-His (membrane-distal end) was used to coat at 2 μg/mL according to the ELISA method in example 5.1.

[4] = target: T1, Human CD19-his protein; assay: ELISA on coated human CD19-His
Procedure: as §1

[5] = target: T1, Human CD19-his protein; assay: ELISA, antibody at 1.00 nM
[6] = target: T1, Human CD19-his protein; assay: ELISA, antibody at 0.01 nM
[7] = target: T1, Human CD19-his protein; assay: ELISA, antibody at 0.0001 nM
[8] = target: T3, murine CD19 protein (murine, UniProt P25918 17-287, limits assumed); assay: ELISA, coated murine CD19
T3 construct: bought protein; also called commercial murine CD19
T3 sequence (looked up): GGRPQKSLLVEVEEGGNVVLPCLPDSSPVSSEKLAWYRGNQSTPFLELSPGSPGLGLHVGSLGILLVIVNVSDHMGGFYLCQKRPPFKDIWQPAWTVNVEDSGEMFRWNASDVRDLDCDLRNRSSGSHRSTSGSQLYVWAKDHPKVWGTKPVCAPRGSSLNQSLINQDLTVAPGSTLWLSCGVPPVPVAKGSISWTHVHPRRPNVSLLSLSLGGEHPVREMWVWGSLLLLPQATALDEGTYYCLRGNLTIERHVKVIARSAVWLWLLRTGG
How it was run: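 Plates coated overnight at 4° C with recombinant murine or monkey CD19 and blocked with 2% BSA. Chimeric antibodies, serially diluted from 100 nM, bound for 2 h at 37° C. TMB development for 10 min with OD450 read-out.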

[9] = target: T1, Human CD19-his protein; assay: ELISA, antibody at 10 nM
[10] = target: T1, Human CD19-his protein; assay: ELISA, antibody at 0.10 nM

Row | Binder | OD450 [1] | OD450 [2] | binding result [3] | EC50 (read off the curve) [4] | OD450 [5] | OD450 [6] | OD450 [7] | binding result [8] | OD450 [9] | OD450 [10]
1 | F4.4.6 (antibody, human IgG1, V domains shown, human-murine chimeric antibody, human IgG1) VH: QVQLQQSGAELARPGASVKLSCKASGYTFTSYWMQWVKQRPGQGLEWIGAIYPGDGDSRYTQKFKGKATLTADKSSSTAYMQLSSLASEDSAVYYCARSTTTVLGNNFEYWGQGTTLTVSS VL: QIVLTQSPAIMSALPGEKVTMTCSASSSVSSMHWYQQKSGTSPKRWIYDTSKLASGVPARFSGSGSGTSYSLTISSMEAEDAATYYCQQWSSNPWTFGGGTKLEIK | 0.06 | 0.79 | no binding | ~100 pM | 0.6 | 0.1 | 0.05 | no binding | 0.58 | 0.37
2 | F4.107.12 (antibody, human IgG1, V domains shown, human-murine chimeric antibody, human IgG1) VH: EVQLQQSGPELVKPGASVKMSCKASGYTFTSYVLHWVRQKPGQGLEWIGYFNPYNDGTEYNEKFKGKAILTSDKSSSTAYMELNSLTSEDSAVYYCVGGTYYYGSSYPFAYWGQGTLVTVST VL: DVVMTQISLSLPVSLGDQASISCRSSQSLIHSNGNTYLQWYLQKPGQSPKLLIYKVSNRLSGVPDRFSGSGSGTDFTLKISRVEAEDLGVYFCSQSTHVPYTFGGGTKLEIK | 0.08 | 1.77 | no binding | ~40 pM | 1.93 | 0.27 | 0.05 | no binding | 1.75 | 1.33
3 | F4.152.7 (antibody, human IgG1, V domains shown, human-murine chimeric antibody, human IgG1) VH: QVQLQQPGAELVKPGASVKLSCKASGYTFTSYWMHWVKQRPGQGLEWIGEIDPSDSYTNYNQKFKGKATLTADKSSSTAYMQLSGLTSEDSAVYHCARGGDYDGYYVMDYWGQGTSVTVSS VL: EIVLTQSPTTMAASPGEKITITCSASSSISSNYLHWYQQKPGFSPKLLIYRTSNLASGVPARFSGSGSGTSYSLTIGTMEADDVATYYCQQGSYIPRIFTFGSGTKLEIK | 0.07 | 2.07 | no binding | ~60 pM | 2.12 | 0.26 | 0.05 | no binding | 2.01 | 1.28
4 | F4.145.9 (antibody, human IgG1, V domains shown, human-murine chimeric antibody, human IgG1) VH: EVQLVESGGGLVKPGGSLKLSCAAAGFAFSSYDMSWVRQIPEKRLEWVAYISAGGGNTYFLDTVKGRFTISRDHAKNTLSLQMSSLKSEDTAMYFCVRHGDYYRYFYAMDYWGQGSSVTVSS VL: DIVMTQSHKFMSTSVGDRVSITCKASQDVGTAVAWSQQKPGQSPKLLIYWASTRHTGVPDRFTGSGSGTDFTLTISNVQSEDLADYFCQQFVTYPYTFGGGTKLEIK | 0.08 | 1.84 | no binding | ~60 pM | 1.79 | 0.27 | 0.06 | no binding | 1.73 | 1.11
5 | F3.124.7 (antibody, human IgG1, V domains shown, human-murine chimeric antibody, human IgG1) VH: EVQLQQSGPVLVKPGASVKMSCKASGYTFTDYYMNWVKQRHGKSLEWIGISNPYNGGTSYNQKFKDKATLTVDKSSSTAYMELNSLTSEDSAVYYCAREGGTAQPTSGMDYWGQGTSVTVSS VL: NIMMTQSPSSLAVSAGEKVTMSCKSSQSVLYSSNQKNYLAWYQQKPGQSPKLLIYWASTRESGVPDRFTGSGSGTDFTLTISSVQPEDPAVYYCHQYRSSYTFGGGTKLEIK | 0.18 | 2.75 |  | ~30 pM | 2.6 | 0.81 | 0.08 | no binding | 2.63 | 2.08
6 | F4.82.11 (antibody, human IgG1, V domains shown, human-murine chimeric antibody, human IgG1) VH: QVTLKESGPGILQASQTLSLTCSFSGFSLSTFGIGVGWVRQPSGKGLEWLAHIWWNDNKFFNTTLKNRLTLSKDPSNNQVFLKIASVDTADTATYYCARSRSALITTGLYAMDYWGQGTSVTVSS VL: DIQMTQTPSSLSASLGDRVTISCRSSQDISNYVNWYQQKPDGTVKVLINYTSRLHSGVPSRFSGSGSGTDYSLTISNLEQEDIASYFCQQGFTLPYTFGGGTKLEIK | 0.18 | 1.52 | no binding | ~80 pM | 1.6 | 0.24 | 0.09 | no binding | 1.55 | 0.85
7 | F4.78.1 (antibody, human IgG1, V domains shown, human-murine chimeric antibody, human IgG1) VH: QVQIQQSGAELARPGASVKLSCKASGYTFTNYWMQWIKQRPGQGLEWIGAIYPGDGDTRYTQKFKGKATLTADKSSSTAYMQLSSLASEDSAVYYCAREEVWSPYGMDYWGQGTSVTVSS VL: QIVLTQSPAIMSASPGEKVTITCSASSSVSYMGWFQQKPGTSPKLWIYSTSNLASGVPARFSGSGSGTSYSLTISRMEAEDAATYYCQQRSIYPLTFGAGTKLELK | 0.08 | 1.87 | no binding | ~70 pM | 1.73 | 0.23 | 0.06 | no binding | 1.94 | 1.09
8 | F3.148.10 (antibody, human IgG1, V domains shown, human-murine chimeric antibody, human IgG1) VH: EVQLQQSGAELVRPGSSVTMSCKTSGYTFTNYGINWVKQRPGQGLEWIGYIFIGNDYTEYNEKFKGKATLTSDTSSSTAYMQLSSLTSEDSAIYFCTRFYSNYYGMDPWGQGTSVTVSS VL: not shown | 0.07 | 3.01 |  | ~200 pM | 2.66 | 0.22 | 0.05 | no binding | 2.94 | 0.98
9 | F4.125.12 (antibody, human IgG1, V domains shown, human-murine chimeric antibody, human IgG1) VH: EVKLVESGGGLVQPGGSLKLSCAASGFTFSTYTMSWVRQTPEKRLEWVAFISSGGGHINYPDTVKGRFTISRDNAKNTLYLQMSSLKSEDTAMYYCARHSYWFFDVWGAGTTVTVSS VL: DVQITQSPSYLAASPGETITINCRASKNIDTYLAWYQEKPGKTNKLLIYSGSTLQSGIPSRFRGGGSGTDFTLTICSLEPEDFAMYYCQQHNEYPLTFGAGTKLELK | 0.09 | 1.84 | no binding | ~60 pM | 1.68 | 0.23 | 0.06 | no binding | 1.54 | 1.07
10 | F3.118.14 (antibody, human IgG1, V domains shown, human-murine chimeric antibody, human IgG1) VH: QVQLQQSGAELVRPGASVTLSCKASGYTFPDYEIHWVKQTPVHGLEWIGAIDPETGGIGYNQKFTGKAMLTADKSSSTAYMELRSLTSEDSAVYFCTRNYGSRWGQGSTLTVSS VL: not shown | 0.07 | 3.21 |  | ~300 pM | 2.27 | 0.19 | 0.05 | no binding | 2.9 | 1.02
